# Data reported in patent US20260070984A1 (Boehringer Ingelheim, published 2026).
# Where two headings read alike, the source gives them in different places.
# Assays:
# cynomologous PD-1 [1] = target: T1, cynomologous PD-1 (cynomolgus monkey, UniProt B0LAJ3 25-170); test: SPR, ProteOn XPR36, 1:1 binding model
# T1 construct: Used in SPR; also called cynomolgus PD-1; recombinant cynomologus PD-1
# Experimental: C) Affinity and kinetic data for the anti-PD-1 antibodies binding to cynomologous PD-1 were measured on the ProteOn™ XPR36 surface plasmon resonance optical biosensor, and globally fit to a 1:1 binding model (Table 11).
# recombinant human PD-1 [2] = target: T2, recombinant human PD-1 (human, UniProt Q15116 25-167, limits assumed); test: SPR, ProteOn XPR36, 1:1 binding model
# T2 construct: Soluble recombinant protein used in SPR; also called PDCD1; purified recombinant human PD-1
# Experimental: Antibody PD1AB-6-4P (antibody in IgG4Pro backbone disclosed in WO2017/058859 to Celgene) was also tested.
# [3] = target: T3, human PD-1 expressed on cells (human, UniProt Q15116 25-288); test: cell-based or functional assay
# [4] = target: T3, human PD-1 expressed on cells; test: cell-based or functional assay; remark: listed apart in the source
# [5] = target: T3, human PD-1 expressed on cells; test: flow cytometry, AlexaFluor 647 labeled antibody on Jurkat cells expressing human PD-1
# Experimental: Selectivity of anti-PD-1 antibody to human PD-1 protein in a cell-based assay was evaluated by flow cytometry. […] As a control, parental and PD-1 expressing Jurkat cells were incubated with anti-TNP isotype control antibodies. Following incubation, the cells were washed to remove non-bound antibody, fixed in PFA, and then washed in staining buffer. Binding of the antibody to the Jurkat cells was evaluated by flow cytometry. Unstained cells were also evaluated by flow cytometry as a negative control.
# [6] = target: T3, human PD-1 expressed on cells; test: cell-based or functional assay; remark: listed apart in the source
# [7] = target: T3, human PD-1 expressed on cells; test: CHO-PD1-PDL1 DELFIA Eu TRF assay: enhancement of biotin labeled PD-L1 binding to CHO cells expressing PD-1, antibody titrated
# Experimental: (§1) 10,000 cells were plated and incubated overnight at 37° C.±5% CO2 incubator (humidified incubator). […] Plates were washed twice with 50 μl of 1× TRF Wash Buffer. 20 μL of Eu-Streptavidin reagent was added to the assay plate, and incubated at room temperature for one hour. Enhancement Solution was added and incubated for 30 minutes at RT.
# [8] = target: T3, human PD-1 expressed on cells; test: cell-based or functional assay; remark: listed apart in the source
# [9] = target: T3, human PD-1 expressed on cells; test: cell-based or functional assay; remark: listed apart in the source
# recombinant human PD-1 [10] = target: T2, recombinant human PD-1; test: SPR, ProteOn XPR36
# Experimental: Kinetics and binding affinities were measured using the ProteOn™ XPR36 (Biorad, Hercules, CA) surface plasmon resonance optical biosensor using material generated from transient transfection following single column purification.
# [11] = target: T3, human PD-1 expressed on cells; test: cell-based or functional assay; remark: listed apart in the source
# [12] = target: T3, human PD-1 expressed on cells; test: flow cytometry: enhancement of PDL1-biotin/Streptavidin-APC binding to CHO cells expressing PD-1
# Experimental: A second cell-based assay where PD-1 was expressed on CHO cells was also utilized to evaluate PD-1/PD-L1 interactions. […] 50 μl of 2×10⁶ cells/ml were added to each well (100,000 cells/well). Cells were centrifuged and re-suspended in 50 μl of the indicated antibody concentrations and incubated for 60 minutes on ice. […] Cells were washed and resuspended in 180 μl stain buffer +20μ PFA and data was acquired on a BD LSR II.
# [13] = target: T3, human PD-1 expressed on cells; test: DELFIA Eu TRF assay: enhancement of biotin labeled PD-L1 binding to CHO cells expressing PD-1
# Experimental: as §1
# cynomologous PD-1 [14] = target: T1, cynomologous PD-1; test: SPR, ProteOn XPR36
# T2 sequence (Q15116 25-167 limits assumed): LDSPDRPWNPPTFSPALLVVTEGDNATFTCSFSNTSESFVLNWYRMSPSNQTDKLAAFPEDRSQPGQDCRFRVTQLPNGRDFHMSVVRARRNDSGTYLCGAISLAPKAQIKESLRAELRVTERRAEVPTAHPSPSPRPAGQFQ
# T1 sequence (B0LAJ3 entry or part of it limits assumed): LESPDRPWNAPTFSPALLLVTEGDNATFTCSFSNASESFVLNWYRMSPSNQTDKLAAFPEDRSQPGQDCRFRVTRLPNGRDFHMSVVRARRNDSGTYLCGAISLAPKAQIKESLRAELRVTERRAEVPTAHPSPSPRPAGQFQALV
# T3 sequence (Q15116 25-288): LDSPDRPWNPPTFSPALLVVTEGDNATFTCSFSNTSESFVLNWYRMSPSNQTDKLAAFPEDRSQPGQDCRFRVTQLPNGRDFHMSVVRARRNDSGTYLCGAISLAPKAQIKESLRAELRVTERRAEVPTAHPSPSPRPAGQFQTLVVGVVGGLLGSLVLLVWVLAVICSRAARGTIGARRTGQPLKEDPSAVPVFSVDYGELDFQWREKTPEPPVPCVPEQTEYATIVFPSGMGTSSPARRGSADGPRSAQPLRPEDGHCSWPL
Kd (cynomologous PD-1 [1]),koff (cynomologous PD-1 [1]),kon (cynomologous PD-1 [1]),Kd (recombinant human PD-1 [2]),koff (recombinant human PD-1 [2]),kon (recombinant human PD-1 [2]),"Emax Values (%), Average, inhibition of IFNγ [3]","IC50 Values (pM), Geomean, inhibition of IFNγ [3]","Emax Values (%), Average, inhibition of IL-17A [4]","IC50 Values (pM), Geomean, inhibition of IL-17A [4]","IC50 Values (pM), Geomean, inhibition of IL-21 [6]",Binder,further results
38.2 nM,0.00663 s⁻¹,173000 M⁻¹ s⁻¹,2.77 nM,0.000492 s⁻¹,178000 M⁻¹ s⁻¹,47.8%,8.1 pM,59.2%,8.1 pM,,"Antibody E (antibody, human IgG4 S228P, kappa, V domains shown, Humanized 723C2, human IgG4Pro/kappa; also called 723C2-IgG4Pro-461-40 with IgK-462-08) VH: EVQLVESGGGLVQPGGSLRLSCAASGFTFSDYYMSWVRQAPGKGLEWVAYISSGGGSSYYPDLVKGRFTISRDNAKQSLYLQMQSLRAEDTAVYYCARLPHYFAMDYWGQGTLVTVSS VL: DIQMTQSPSSLSASVGDRVTITCQASQSISSDYLHWYQQKPGKAPKLLIYRTSNLESGVPSRFSGSGSGTDFTFTISSLQPEDIATYYCQQGTSLPRAFGQGTKLEIKR",
41 nM,0.00633 s⁻¹,154000 M⁻¹ s⁻¹,2.65 nM,0.000463 s⁻¹,175000 M⁻¹ s⁻¹,46.8%,17.7 pM,62.9%,32.5 pM,6 pM,"Antibody C (antibody, human IgG4 S228P, kappa, V domains shown, Humanized 723C2, human IgG4Pro/kappa; also called Ab C; 723C2-IgG4Pro-461-47 with IgK-462-07) VH: EVQLVESGGGLVQPGGSLRLSCAASGFTFSDYYMSWVRQAPGKGLEWVAYISSGGGSSYYPDAVKGRFTISRDNAKQSLYLQMQSLRAEDTAVYYCARLPHYFAMDYWGQGTLVTVSS VL: DIQMTQSPSSLSASVGDRVTITCQASQSISSDYLHWYQQKPGKAPKLLIYRTSNLETGVPSRFSGSGSGTDFTFTISSLQPEDIATYYCQQGTSLPRAFGQGTKLEIKR","EC50 (read off the curve) [5]: ~10 nM; EC50 [7]: 2.4 nM; IC50 Values (nM), Geomean, inhibition of IFNγ [8]: 0.03 nM; IC50 Values (nM), Geomean, inhibition of IFNγ [9]: 0.03 nM"
45.2 nM,0.00674 s⁻¹,149000 M⁻¹ s⁻¹,2.58 nM,0.000574 s⁻¹,222000 M⁻¹ s⁻¹,50.1%,18 pM,63.9%,31.9 pM,,"Antibody D (antibody, human IgG4 S228P, kappa, V domains shown, Humanized 723C2, human IgG4Pro/kappa; also called 723C2-IgG4Pro-461-44 with IgK-462-08) VH: EVQLVESGGGLVQPGGSLRLSCAASGFTFSDYYMSWVRQAPGKGLEWVAYISSGGGSSYYPDLVKGRFTISRDNAKQSLYLQMNSLRAEDTAVYYCARLPHYFAMDYWGQGTLVTVSS VL: DIQMTQSPSSLSASVGDRVTITCQASQSISSDYLHWYQQKPGKAPKLLIYRTSNLESGVPSRFSGSGSGTDFTFTISSLQPEDIATYYCQQGTSLPRAFGQGTKLEIKR",
26.5 nM,0.00473 s⁻¹,178000 M⁻¹ s⁻¹,2.73 nM,0.000434 s⁻¹,159000 M⁻¹ s⁻¹,49%,7.4 pM,69.8%,41.1 pM,,"Antibody A (antibody, human IgG4 S228P, kappa, V domains shown, Humanized 723C2, human IgG4Pro/kappa) VH: EVQLVESGGGLVQPGGSLRLSCAASGFTFSDYYMSWVRQAPGKGLEWVSYISSGGGSKYYPDLVKGRFTISRDNAKNSLYLQMSSLRAEDTAVYYCARLPHYFAMDYWGQGTLVTVSS VL: DIQMTQSPSSLSASVGDRVTITCSASQSISSDYLHWYQQKPGKAPKLLIYRTSNLASGVPSRFSGSGSGTDFTFTISSLQPEDIATYYCQQGTSLPRAFGQGTKLEIKR",
32.9 nM,0.00558 s⁻¹,169000 M⁻¹ s⁻¹,1.62 nM,0.000421 s⁻¹,259000 M⁻¹ s⁻¹,48.9%,18.4 pM,63.4%,25.3 pM,,"Antibody B (antibody, human IgG4 S228P, kappa, V domains shown, Humanized 723C2, human IgG4Pro/kappa; also called 723C2-IgG4Pro-461-41 with IgK-462-07) VH: EVQLVESGGGLVQPGGSLRLSCAASGFTFSDYYMSWVRQAPGKGLEWVAYISSGGGSSYYPDLVKGRFTISRDNAKNSLYLQMQSLRAEDTAVYYCARLPHYFAMDYWGQGTLVTVSS VL: DIQMTQSPSSLSASVGDRVTITCQASQSISSDYLHWYQQKPGKAPKLLIYRTSNLETGVPSRFSGSGSGTDFTFTISSLQPEDIATYYCQQGTSLPRAFGQGTKLEIKR",
38.9 nM,0.00721 s⁻¹,185000 M⁻¹ s⁻¹,2.58 nM,0.000582 s⁻¹,226000 M⁻¹ s⁻¹,66.5%,18 pM,70%,14.4 pM,12 pM,"Chimeric 723C2 in IgG4Pro (antibody, V domains shown) VH: EVQLVESGGGLVQPGGSLKLSCAASGFTFSDYYMSWVRQTPEKRLEWVAYISSGGGSSYYPDSVKGRFTISRDNTKNTLYLQMSSLKSEDTAVYYCARLPHYFAMDYWGQGTSVTVSS VL: EIVLTQSPTTMAASPGEKITITCSASSSISSDYLHWYQQKPGFSPELLIYRTSNLASGVPARFSGSGSGTSYSLTIGSMEAEDVATYYCQQGTSLPRAFGGGTKLEIKR","Kd (recombinant human PD-1 [10]): 2.58 nM; koff (recombinant human PD-1 [10]): 0.000582 s⁻¹; kon (recombinant human PD-1 [10]): 226000 M⁻¹ s⁻¹; Emax Values (%), inhibition of NFAT activity [11]: 42.6%; IC50 Values (nM), inhibition of NFAT activity [11]: 0.13 nM"
,,,,,,,,,,,"antibody 723C2 in human IgG4Pro backbone without the DC to DY mutation in H-CDR3 (antibody, V domains shown, Mouse 723C2 variable domains (H-CDR3 ending DC) in human IgG4Pro backbone; also called 723C2-4P) VH: EVQLVESGGGLVQPGGSLKLSCAASGFTFSDYYMSWVRQTPEKRLEWVAYISSGGGSSYYPDSVKGRFTISRDNTKNTLYLQMSSLKSEDTAVYYCARLPHYFAMDCWGQGTSVTVSS VL: EIVLTQSPTTMAASPGEKITITCSASSSISSDYLHWYQQKPGFSPELLIYRTSNLASGVPARFSGSGSGTSYSLTIGSMEAEDVATYYCQQGTSLPRAFGGGTKLEIK",EC50 (read off the curve) [12]: ~6 nM; EC50 (read off the curve) [13]: ~2 nM
,,,,,,40.1%,31.5 pM,67.5%,176 pM,50 pM,"PD1AB-6-4P (antibody, V domains shown) VH: EVQLVQSGAEVKKPGATVKISCKASGFNIKDTYMHWVQQAPGKGLEWMGRIDPANGDRKYDPKFQGRVTITADTSTDTAYMELSSLRSEDTAVYYCARSGPVYYYGSSYVMDYWGQGTTVTVSS VL: DIVMTQSPDSLAVSLGERATINCKSGQSVLYSSNQKNFLAWYQQKPGQPPKLLIYWASTRESGVPDRFSGSGSGTDFTLTISSLQAEDVAVYYCHQYLYSWTFGQGTKLEIK",Kd (cynomologous PD-1 [14]): 25 nM
